{"source": "patent US20190300610A1", "about": "(published 2019)", "binders": {"B1": {"name": "anti-VISTA clone 9M2-C12 IgG1 (antibody, V domains shown)", "VH": "QVQLQQSGAELVKPGASVRLSCKASGYTFTSYWMHWVRQRPGLGLEWIGEIDPSDSYTNCNQRFKGKATLTVDKSSSTAYTQLSSLTSEDSAVYYCARWAYGPYAMDYWGQGTSVTVSS", "VL": "DIVMTQTPLSLPVSLGDQASISCRSSQSLVHSNGNTYLHWYLQKPGQSPKLLIYKVSNRFSGVPDRFSGSGSGTDFTLKISRVEAEDLGVYFCSQSTHVPWTFGGGTKLEIKR"}, "B2": {"name": "anti-VISTA clone 4M2-C12 IgG1 (antibody)", "heavy": "not shown", "light": "DIVITQTPAILSTSPGEKVTMTCRASSSVGYIHWYQQKPGSSPKPWIYATSNLASGVPARFSGSGSGTSNSLTITRVEAEDAATYYCQQWSSYPPITFGGGTKLEVKRTVAAPSVFIFPPSDEQLKSGTASVVCLLNNFYPREAKVQWKVDNALQSGNSQESVTEQDSKDSTYSLSSTLTLSKADYEKHKVYACEVTHQGLSSPVTKSFNRGEC", "notes": "Human-mouse chimeric IgG1/kappa; also called V4; clone V4"}, "B3": {"name": "4M2-C12 mIgG2a (antibody)", "heavy": "EVKLVESGPGLVKPSQSLSLTCTVTGYSITSDYAWNWIRQFPGNKLEWMGYITYSGNISYNPSLRSRISITRDTSKNQFFLQLNSVTPEDTATYSCARSLYYPWYFDVWGAGTTVTVSSAKTTAPSVYPLAPVCGDTTGSSVTLGCLVKGYFPEPVTLTWNSGSLSSGVHTFPAVLQSDLYTLSSSVTVTSSTWPSQSITCNVAHPASSTKVDKKIEPRGPTIKPCPPCKCPAPNLLGGPSVFIFPPKIKDVLMISLSPIVTCVVVDVSEDDPDVQISWFVNNVEVHTAQTQTHREDYNSTLRVVSALPIQHQDWMSGKEFKCKVNNKDLPAPIERTISKPKGSVRAPQVYVLPPPEEEMTKKQVTLTCMVTDFMPEDIYVEWTNNGKTELNYKNTEPVLDSDGSYFMYSKLRVEKKNWVERNSYSCSVVHEGLHNHHTTKSFSRTPGK", "light": "DIVITQTPAILSTSPGEKVTMTCRASSSVGYIHWYQQKPGSSPKPWIYATSNLASGVPARFSGSGSGTSNSLTITRVEAEDAATYYCQQWSSYPPITFGGGTKLEVKRADAAPTVSIFPPSSEQLTSGGASVVCFLNNFYPKDINVKWKIDGSERQNGVLNSWTDQDSKDSTYSMSSTLTLTKDEYERHNSYTCEATHKTSTSPIVKSFNRNEC", "notes": "Mouse IgG2a format, produced in CHO cells; also called 4M2-C12 IgG2a"}}, "key": {"[1]": {"target": "T1, Human VISTA expressed on cells (human, UniProt Q9H7M9 33-311)", "T1 construct": "also called HEK293 VISTA O/E; HEK293T cells transfected with vector encoding human VISTA", "assay": "flow cytometry, HEK293T cells transfected with human VISTA vs wildtype, 20 µg/ml antibody (FIGS. 1C, 2, 24)", "procedure": "The cells were washed thrice with FACS buffer (PBS with 5 mM EDTA and 0.5% BSA) and resuspended in FITC-conjugated anti-FC antibody (Invitrogen, USA) for 40 min at 2-8° C. Cells were washed again and resuspended in 200 μL of FACS flow buffer (PBS with 5 mM EDTA) for flow cytometric analysis using MACSQuant 10 (Miltenyi Biotec, Germany). After acquisition, all raw data were analyzed using Flowlogic software. Cells were gated using forward and side scatter profile and Median of Fluorescence Intensity (MFI) value was determined for native and overexpressing cell populations."}, "[2]": {"target": "T2, His-tagged cynomolgus macaque VISTA (cynomolgus macaque, UniProt A0A7N9IB00 33-194)", "T2 construct": "also called cynomolgus monkey VISTA; not shown: His tag", "assay": "BLI (Octet QK384), His-tagged VISTA captured on anti-Penta-HIS tips, antibody as analyte, global one site fit"}, "His-tagged human VISTA": {"target": "T3, His-tagged human VISTA (human, UniProt Q9H7M9 33-194)", "T3 construct": "also called human VISTA-His recombinant protein; VISTA/human His-tagged fusion protein (Sinobiological Inc); not shown: His tag", "assay": "BLI (Octet QK384), His-tagged VISTA captured on anti-Penta-HIS tips, antibody as analyte, global one site fit"}, "[3]": {"target": "T4, Histidine-tagged mFcγRIII (mouse, UniProt P08508 31-215)", "T4 construct": "also called mouse FcγRIII; mFcγRIII (50326-M08H, Sino Biological); not shown: histidine tag", "T4 sequence (looked up)": "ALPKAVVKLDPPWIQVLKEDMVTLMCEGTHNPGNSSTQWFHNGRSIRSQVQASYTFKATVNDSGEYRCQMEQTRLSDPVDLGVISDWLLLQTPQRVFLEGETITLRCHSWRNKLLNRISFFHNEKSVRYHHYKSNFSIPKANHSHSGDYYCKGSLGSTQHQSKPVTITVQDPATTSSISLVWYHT", "assay": "BLI (Octet QK384), His-tagged receptor on anti-Penta-HIS biosensor, antibody as analyte, pH 7.2"}, "[4]": {"target": "T5, Histidine-tagged mFcγRIIb (mouse, UniProt P08101 30-207)", "T5 construct": "also called mouse FcγRIIb; mFcγRIIb (50030-M08H, Sino Biological); not shown: histidine tag", "T5 sequence (looked up)": "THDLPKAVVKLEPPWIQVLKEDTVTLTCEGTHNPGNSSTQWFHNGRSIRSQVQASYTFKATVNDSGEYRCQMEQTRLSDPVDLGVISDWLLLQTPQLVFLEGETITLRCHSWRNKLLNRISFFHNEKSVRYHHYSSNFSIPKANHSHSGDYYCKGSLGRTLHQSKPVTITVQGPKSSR", "assay": "BLI (Octet QK384), His-tagged receptor on anti-Penta-HIS biosensor, antibody as analyte, pH 7.2"}, "Histidine-tagged mFcγRIV": {"target": "T6, Histidine-tagged mFcγRIV (mouse, UniProt A0A0B4J1G0 21-203)", "T6 construct": "also called mouse FcγRIV; mFcγRIV (50036-M08H, Sino Biological)", "T6 sequence": "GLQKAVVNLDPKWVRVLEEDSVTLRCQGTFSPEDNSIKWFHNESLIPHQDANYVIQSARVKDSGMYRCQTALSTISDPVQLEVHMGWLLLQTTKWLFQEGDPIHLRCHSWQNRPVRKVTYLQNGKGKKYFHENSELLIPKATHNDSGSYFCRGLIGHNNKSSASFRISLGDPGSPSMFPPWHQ", "assay": "BLI (Octet QK384), His-tagged receptor on anti-Penta-HIS biosensor, antibody as analyte, pH 7.2"}}}
{"binder": "B1", "values": [{"measurement": "binding result", "setting": "[1]", "result": "binds"}]}
{"binder": "B2", "values": [{"measurement": "Kd", "setting": "[2]", "result": "< 1000", "unit": "nM"}, {"measurement": "Kd", "setting": "His-tagged human VISTA", "result": "< 1000", "unit": "nM"}]}
{"binder": "B3", "values": [{"measurement": "binding result", "setting": "[3]", "result": "binds"}, {"measurement": "binding result", "setting": "[4]", "result": "binds"}, {"measurement": "binding result", "setting": "Histidine-tagged mFcγRIV", "result": "binds"}]}
